Positions count from the first letter of the chain named.
B1: pol30-Msh6E6: PCNA mutant evolved for Msh6, IDCL sequence DYDKDLLKIIEL (protein)
chain: MLEAKFEEASLFKRIIDGFKDCVQLVNFQCKEDGIIAQAVDDSRVLLVSLEIGVEAFQEYRCDHPVTLGMDLTSLSKILRCGNNTDTLTLIADNTPDSIILLFEDTKKDRIAEYSLKLMDYDKDLLKIIELQYDSTLSLPSSEFSKIVRDLSQLSDSINIMITKETIKFVADGDIGSGSVIIKPFVDMEHPETSIKLEMDQPVDLTFGAKYLLDIIKGSSLSDRVGIRLSSEAPALFQFDLKSGFLQFFLAPKFNDEE
modifications: left off: Gal4 activation domain, end not stated, kept
B2: pol30-Msh6E2: PCNA mutant evolved for Msh6, IDCL sequence DYDRDMLKISEL (protein)
chain: B1 chain with K123R, L125M, I129S
modifications: left off: Gal4 activation domain, end not stated, kept
B3: pol30-Rad30E2: PCNA mutant evolved for Rad30, IDCL sequence DDDWDFLKILEL (protein)
chain: B1 chain with Y121D, K123W, L125F, I129L
modifications: left off: Gal4 activation domain, end not stated, kept
B4: pol30-Pol32E9 (protein)
chain: B1 chain with Y121N, K123V, L125S
modifications: left off: Gal4 activation domain, end not stated, kept
B5: pol30-79: previously studied PCNA mutant with decreased partner binding, IDCL sequence DIDADFAKAEEL (protein)
chain: B1 chain with Y121I, K123A, L125F, L126A, I128A, I129E
modifications: left off: Gal4 activation domain, end not stated, kept

How the values were obtained:
yeast strains = assay: Growth sensitivity of PCNA mutant strains to MMS and HU; assay type: cell-based; conditions: for effect of overexpression of Rad27, Rad30, Pol32, and Msh6 on growth sensitivity to DNA damaging agents: Figure S9, GAL1/10 inducible GST-tagged partners; for effect of rad27 deletion on growth sensitivity of the mutant strain: Figure S8, parent vs rad27-deleted strains
Description: Next, we examined the sensitivity of strains containing single deletions of each of the five different partners on a WT PCNA background. […] We first examined whether the rad27 deletion can suppress the lethality of a strain containing the pol30-Rad27L1 or pol30-Rad27L2 mutants (Figure 6A). […] In addition, we examined whether rad30 deletion, ung1 deletion, and msh6 deletion can suppress the phenotypes of the pol30 mutants with increased affinity to Rad30, Ung1, and Msh6, respectively (Figure 6B–D). […] However, since the suppression of the strain phenotypes was not complete, additional factors, such as minor effects of the mutations on other PCNA-partner interactions, may play a partial role in the sensitivity phenotype of the examined pol30 mutants. […] We also examined whether overexpression of different partners can suppress the growth sensitivity of the pol30 mutants, however no suppression was observed (Figure S9).
Novel haploids containing PCNA mutants were generated using the plasmid shuffling method. Briefly, a pol30::KanMX magic marker heterozygote diploid strain BY4743 (Open Biosystem) was transformed with plasmid pRS316-POL30. Following dissection of the diploid, a haploid containing the CAN+ gene and plasmid pRS316-POL30 as a sole source of PCNA was generated. This host strain was transformed with selected pRS315-pol30 mutants, plated on SC-Ura-Leu plates, followed by replica plating to SC-Leu+5FOA plates. Haploids, containing PCNA mutants as a sole source, were further verified by plating on either SC-Leu or SC-Ura plates. For testing selected PCNA mutants, a haploid containing rad27::HYG, rad30::HYG, pol32::HYG, msh6::HYG, or ung1::HYG were generated using plasmid pAG32 by conventional genetic approaches. Growth of the PCNA mutant strains in the presence of 120 mM HU (Toronto Research Chemicals) or 0.02% MMS (Sigma) was performed as described. To examine the effects of partner overexpression on pol30 mutant strains, these strains were transformed with various plasmids containing GST-tagged PCNA partner encoding genes under the control of a GAL1/10 inducible promoter, as previously described. Overnight cultures were plated in serial dilutions on SC-Ura containing either glucose or galactose with or without DNA-damaging agents, as described above.

Rad30 = assay: Yeast two hybrid (Y2H) analysis of PCNA-partner interaction; assay type: binding; conditions: for Binding of PCNA Mutants to Target Partners: Rad30 (Y2H): YRG2 strain, growth on selective agar plates lacking histidine, growth similar to WT PCNA denoted as 1; for Binding of PCNA Mutants to Target Partners: Rad30, fold increase or decrease (quantitative Y2H): footnote c: generation time in liquid selective media lacking histidine relative to cells expressing WT PCNA, average of at least 3 independent experiments
Method: (§1) For the Y2H assay, we used the YRG2 host strain, shown to be highly efficient in coupling the strength of protein-protein interactions with growth on media lacking histidine. Selected PCNA mutants were characterized for their ability to bind each of 12 main PCNA partners to obtain specificity profiles (Table 1, Table S1, and Figures S4–S5). […] However, in some cases a strong trade-off between the bindings of different partners was observed.
(§2) Y2H analysis was performed using the Yeast Two Hybrid Phagemid vector kit (Stratagene), following the manufacturer's instructions. The pAD-PCNA-WT/mutant plasmids were used as bait while plasmids encoding 12 different PCNA partners (Table 1 and Table S1) were used as prey. The YRG2 host strain (Stratagene) was cotransformed with pAD-PCNA WT/mutant and pBD-partner plasmids in all possible combinations using the LiAC method. Single transformants were grown in liquid SC-Leu-Trp to O.D600 10, washed twice with DDW, and diluted to an initial OD600 of 0.3. A series of 10-fold serial dilutions was then spotted onto selective SC-Leu-Trp-His plates and incubated at 30°C for 3 d. For quantitative Y2H, the generation time of the indicated mutants and their respective partners were calculated from their growth curves in liquid SC-Leu-Trp-His media. Cells were grown overnight in SC-Leu-Trp, washed twice with ddH2O, and diluted by a factor of 1∶50 into 10 ml of pre-warmed SC-Leu-Trp-His. O.D600 measurements of the cultures were taken at the indicated time; the generation time (τ) was calculated from the growth curves according to the equation ODt = OD0×2^t/τ. The generation time calculated for each culture is an average of at least 3 independent experiments.

Ung1 = assay: as above; assay type: binding; conditions: for Binding of PCNA Mutants to Target Partners: Ung1 (Y2H): YRG2 strain, growth on selective agar plates lacking histidine, growth similar to WT PCNA denoted as 1
Method: as §1, §2

Msh6 = assay: as above; assay type: binding; conditions: for Binding of PCNA Mutants to Target Partners: Msh6 (Y2H): YRG2 strain, growth on selective agar plates lacking histidine, growth similar to WT PCNA denoted as 1; for Binding of PCNA Mutants to Target Partners: Msh6, fold increase or decrease (quantitative Y2H): footnote c: generation time in liquid selective media lacking histidine relative to cells expressing WT PCNA, average of at least 3 independent experiments
Method: as §1, §2

Rad27 = assay: as above; assay type: binding; conditions: for Binding of PCNA Mutants to Target Partners: Rad27, fold increase or decrease (quantitative Y2H): footnote c: generation time in liquid selective media lacking histidine relative to cells expressing WT PCNA, average of at least 3 independent experiments
Method: as §1, §2

Pol32 = assay: as above; assay type: binding; conditions: for Binding of PCNA Mutants to Target Partners: Pol32 (Y2H): YRG2 strain, growth on selective agar plates lacking histidine, growth similar to WT PCNA denoted as 1; for Binding of PCNA Mutants to Target Partners: Pol32, fold increase or decrease (quantitative Y2H): footnote c: generation time in liquid selective media lacking histidine relative to cells expressing WT PCNA, average of at least 3 independent experiments
Method: as §1, §2

Msh3 = assay: as above; assay type: binding; design: key: ++: major increase in growth; +: moderate increase in growth; similar growth as the WT PCNA-expressing cells; -: minor decrease in growth; --: moderate decrease in growth; ---: major decrease in growth; conditions: spotting onto selective agar plates; PCNA fused to AD, partner to BD
Method: as §2
(§3) Table S1: Yeast two hybrid analysis of binding of selected PCNA mutants with seven additional partners not described in Table 1 of the main text. […]
(§4) pol30-Rad30E2 WT WT WT WT WT WT - pol30-Rad30E9 WT WT WT WT WT WT WT pol30-Rad27E6 WT WT WT WT + WT WT pol30-Rad27E31 WT WT WT WT + WT WT pol30-Rad27L1 WT -- WT WT -- WT WT pol30-Rad27L2 WT -- WT WT -- WT WT pol30-Pol32E5 WT WT WT WT WT WT WT pol30-Pol32E9 - WT WT WT WT WT WT pol30-Msh6E2 WT WT + WT WT WT WT pol30-Msh6E6 WT WT ++ WT WT WT WT pol30-Ung1E3 WT - WT WT WT WT WT pol30-79 --- --- --- - --- --- --- a PCNA mutants with enhanced affinities for the different target partners (see Table 1, text). b PCNA mutants were fused to the activating domain (AD), while the different partners were fused to the DNA-binding domain (BD). The growth of the resulting Y2H strains was compared to the growth of the WT PCNA-expressing strain following spotting onto selective agar plates (see Material and Methods). Growth rates on the agar plates were scored and tabulated as follows: ++ major increase in growth; + moderate increase in growth; WT-similar growth as the WT PCNA-expressing cells; - minor decrease in growth; -- moderate decrease in growth; --- major decrease in growth. ND-Not determined.

Eco1 = assay: as above; assay type: binding; design: key: ++: major increase in growth; +: moderate increase in growth; similar growth as the WT PCNA-expressing cells; -: minor decrease in growth; --: moderate decrease in growth; ---: major decrease in growth; conditions: spotting onto selective agar plates; PCNA fused to AD, partner to BD
Method: as §2, §3, §4

Rrm3 = assay: as above; assay type: binding; design: key: ++: major increase in growth; +: moderate increase in growth; similar growth as the WT PCNA-expressing cells; -: minor decrease in growth; --: moderate decrease in growth; ---: major decrease in growth; conditions: spotting onto selective agar plates; PCNA fused to AD, partner to BD
Method: as §2, §3, §4

Row | Molecule | effect of overexpression of Rad27, Rad30, Pol32, and Msh6 on growth sensitivity to DNA damaging agents (yeast strains) | Binding of PCNA Mutants to Target Partners: Rad30 (Y2H) (Rad30) | Binding of PCNA Mutants to Target Partners: Ung1 (Y2H) (Ung1) | Binding of PCNA Mutants to Target Partners: Msh6 (Y2H) (Msh6) | Binding of PCNA Mutants to Target Partners: Rad27 (Y2H) (Rad27; YRG2 strain, growth on selective agar plates lacking histidine, growth similar to WT PCNA denoted as 1) | Binding of PCNA Mutants to Target Partners: Pol32 (Y2H) (Pol32) | Binding of PCNA Mutants to Target Partners: Msh6, fold increase or decrease (quantitative Y2H) (Msh6) | Y2H growth relative to WT PCNA-expressing strain: Msh3 (Msh3) | Y2H growth relative to WT PCNA-expressing strain: Eco1 (Eco1) | Y2H growth relative to WT PCNA-expressing strain: Rrm3 (Rrm3) | effect of rad27 deletion on growth sensitivity of the mutant strain (yeast strains) | effect of rad30 deletion on strain growth sensitivity phenotype (yeast strains; Figure 6B) | Binding of PCNA Mutants to Target Partners: Rad30, fold increase or decrease (quantitative Y2H) (Rad30) | Binding of PCNA Mutants to Target Partners: Rad27, fold increase or decrease (quantitative Y2H) (Rad27) | Binding of PCNA Mutants to Target Partners: Pol32, fold increase or decrease (quantitative Y2H) (Pol32) | Binding of PCNA Mutants to Target Partners: Ung1, fold increase or decrease (quantitative Y2H) (Ung1; footnote c: generation time in liquid selective media lacking histidine relative to cells expressing WT PCNA, average of at least 3 independent experiments)
1 | POL30: wild-type yeast PCNA (POL30), IDCL sequence DIDADFLKIEEL | did not reduce the growth sensitivity | 1 | 1 | 1 | 1 | 1 |  |  |  |  |  |  |  |  |  | 
2 | B1 |  | 1 | 1 |  |  | 1 | 1.4 fold | ++ | WT | WT |  |  |  |  |  | 
3 | B2 |  | 1 | 1 |  |  | 1 | 1.4 ^c fold | + | WT | WT | only weak effect |  |  |  |  | 
4 | B3 |  |  | 1 | 1 |  |  |  | WT | WT | WT | suppression of the growth sensitivity | suppression | 1.4 ^c fold | 0.4 ^c fold | 0.4 ^c fold | 
5 | B4 |  | 1 | 1 | 1 |  |  |  | WT | WT | WT |  |  |  |  | 1.3 fold | 
6 | B5 | did not reduce the growth sensitivity |  |  |  |  |  | 0.4 ^c fold | --- | --- | --- |  |  | 0.4 ^c fold | 0.5 ^c fold | 0.3 ^c fold | 0.3 ^c fold
